According to patent US20170112792:

Tests used:
Erk1, P27361 = biological target: T1, Erk1, P27361
T1 chain: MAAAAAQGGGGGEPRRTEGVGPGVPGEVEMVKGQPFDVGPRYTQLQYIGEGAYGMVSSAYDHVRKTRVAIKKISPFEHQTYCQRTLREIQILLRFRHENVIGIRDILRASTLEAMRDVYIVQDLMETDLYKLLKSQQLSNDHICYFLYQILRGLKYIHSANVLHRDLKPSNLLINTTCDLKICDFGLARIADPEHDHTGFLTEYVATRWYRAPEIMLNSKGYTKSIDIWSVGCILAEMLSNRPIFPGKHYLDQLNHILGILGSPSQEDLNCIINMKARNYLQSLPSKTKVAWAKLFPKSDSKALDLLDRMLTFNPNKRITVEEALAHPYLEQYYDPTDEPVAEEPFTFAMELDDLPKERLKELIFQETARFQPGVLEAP

Erk2, P28482, sequence (P28482 whole entry): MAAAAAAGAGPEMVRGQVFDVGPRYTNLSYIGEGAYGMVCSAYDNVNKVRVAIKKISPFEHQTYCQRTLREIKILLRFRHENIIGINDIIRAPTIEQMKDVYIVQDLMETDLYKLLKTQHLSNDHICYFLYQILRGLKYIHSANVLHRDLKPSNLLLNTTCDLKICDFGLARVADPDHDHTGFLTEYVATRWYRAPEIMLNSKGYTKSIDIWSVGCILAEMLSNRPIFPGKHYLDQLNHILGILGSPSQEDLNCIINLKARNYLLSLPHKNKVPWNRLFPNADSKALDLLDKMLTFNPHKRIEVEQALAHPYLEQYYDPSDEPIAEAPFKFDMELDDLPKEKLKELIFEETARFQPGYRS

B1: Flag-Rab2A (protein)
chain: MAYAYLFKYIIIGDTGVGKSCLLLQFTDKRFQPVHDLTIGVEFGARMITIDGKQIKLQIWDTAGQESFRSITRSYYRGAAGALLVYDITRRDTFNHLTTWLEDARQHSNSNMVIMLIGNKSDLESRREVKKEEGEAFAREHGLIFMETSAKTASNVEEAFINTAKEIYEKIQEGVFDINNEANGIKIGPQHAATNATHAGNQGGQQAGGGCC
**Q.** For B1, which Erk1/2 phosphorylation (Erk1, P27361) is on record?
**A.** Flag-Rab2A expression restored Erk1/2 phosphorylation in a dose-dependent manner

**Q.** What about the Erk1/2 phosphorylation (Erk2, P28482) of the same protein?
**A.** Flag-Rab2A expression restored Erk1/2 phosphorylation in a dose-dependent manner
